In paper PMC3378601:

Columns and labels:
[1] = target: NM, the prion domain (N and M domains) of the yeast translation termination factor Sup35, untagged (yeast) (UniProt P05453)
[2] = target: NM, the prion domain (N and M domains) of the yeast translation termination factor Sup35, untagged (yeast) (UniProt P05453); remark: listed apart in the source
[3] = target: NM, the prion domain (N and M domains) of the yeast translation termination factor Sup35, untagged (yeast) (UniProt P05453); remark: listed apart in the source

pyrene excimer fluorescence of fibers of single cysteine NM mutants after 60 min with Hsp26 (10 µM); reduction at N-terminal positions 2 and 7 (slightly reduced in Head 21-38 and Tail 86-106) [1]: 2 fold
inhibition of NM (5 µM) fibrillization seeded by preformed NM fibers (5% wt/wt), 12 h at 25°C, ThT fluorescence; IC50 of Hsp26 [2]: 1900 nM
inhibition of seeded NM fibrillization by Hsp26 pretreated at 45°C for 10 min, ThT fluorescence; IC50 [3]: > 24000 nM
Substance: Hsp26, yeast small heat shock protein (from UniProt P15992 1-214) (natural protein)
